Measured values: the Human Domainome abundance scans (Beltran et al. 2025)

B1: E3 ubiquitin-protein ligase NEDD4, residues 836 to 881; numbered along this chain, P46934 (parent)
chain: EIEQGFLPKGWEVRHAPNGRPFFIDHNTKTTTWEDPRLKIPAHLRG
B2: POU domain, class 2, transcription factor 1, residues 285 to 354; numbered along this chain, P14859 (parent)
chain: LEELEQFAKTFKQRRIKLGFTQGDVGLAMGKLYGNDFSQTTISRFEALNLSFKNMCKLKPLLEKWLNDAE

Variants of: B1
Assay: abundance fitness (aPCA) (normalised: wild type 0, dead -1); higher = more abundant; growth selection in yeast, the domain comes from the species named
Conditions: Homo sapiens

Abundance fitness: each site, then its substitutions
G46: S -0.002, A -0.249, D -0.088
L44: M -0.002, E -0.07, C 0.004, F -0.423, N -0.34, S -0.001, W -0.188, K -0.154, T -0.027, D 0.116, A 0.08, G 0.056, R -0.221, Y -0.172, P 0.119, I -0.053, Q 0.033, H 0.116
P41: M -0.353, F -0.57, K -0.08, Y -0.607, N 0.005, S -0.139, T -0.158, H 0.051, A -0.078, I 0.029, L -0.469, Q -0.32, W -0.49, V -0.141, E -0.167, R -0.117, G -0.423, D -0.16
L38: V -0.051, G -0.018, T 0.033, Q -0.091, Y -0.435, E -0.093, S -0.019, I -0.043, D 0.036, H -0.292, P -0.072, N -0.166, A -0.103, M -0.066, R -0.012, W -0.105, K -0.105
I40: E -0.233, Y -0.27, W -0.055, N -0.154, Q 0.085, P -0.335, C -0.343, L -0.042, D -0.193, M -0.026, K 0.095, T 0.04, G 0.028, V -0.007, R -0.018, A 0.002, S 0.009, H -0.17, F -0.239
R45: D 0.104, K -0.016, Y -0.072, G 0.005, H 0.104, P 0.006, N 0.017, A -0.005, Q -0.11, E 0.153, W -0.202, C 0.019, V -0.055, L -0.182, T -0.074, F -0.174, S -0.131, I -0.454
R37: V -0.597, Q -0.665, T -0.256, W -0.812, Y -0.784, S -0.472
H43: G -0.078, M -0.251, V -0.052, W -0.311, F -0.232, I -0.156, R -0.195, D -0.177, Y -0.041, Q 0.007, A -0.105, C -0.22, K -0.04, S 0.019, P 0.094, T 0.059, E 0.105, L -0.107, N -0.084
K39: G -0.065, F -0.421, D -0.241, S -0.098, L -0.144, W -0.298, E 0.062, C 0.32, H -0.355, M -0.101, Y -0.319, T -0.023, A -0.085, V -0.201, I -0.297, Q -0.372, R 0.003
A42: G -0.013, I -0.398, C -0.135, Q 0.02, D -0.111, T -0.22, S -0.092, N -0.015, R -0.273, W -0.316, F -0.223, H -0.086, P -0.075, Y -0.252, L -0.147, M -0.181, E 0.027, V -0.128, K -0.092

Variants of: B2
Assay: as above
Conditions: Homo sapiens

Abundance fitness, by site and new letter:
L1: K 0.001, W -0.02, C -0.065, S -0.055, F 0.007, M 0.073, E -0.124, N -0.074, D -0.145, A -0.201, I -0.003, R 0.142, V -0.026
